Reference: patent publication US20160024196A1 (Amgen, published 2016)

Experiments:
murine SFRP5 [1] = biological target: T1, murine SFRP5 (mouse, UniProt Q9WU66 22-314, limits assumed); assay: kinetics; method not stated (Table 12, repeats Table 8)
T1 construct: also called mouse SFRP5; muSFRP5
T1 sequence: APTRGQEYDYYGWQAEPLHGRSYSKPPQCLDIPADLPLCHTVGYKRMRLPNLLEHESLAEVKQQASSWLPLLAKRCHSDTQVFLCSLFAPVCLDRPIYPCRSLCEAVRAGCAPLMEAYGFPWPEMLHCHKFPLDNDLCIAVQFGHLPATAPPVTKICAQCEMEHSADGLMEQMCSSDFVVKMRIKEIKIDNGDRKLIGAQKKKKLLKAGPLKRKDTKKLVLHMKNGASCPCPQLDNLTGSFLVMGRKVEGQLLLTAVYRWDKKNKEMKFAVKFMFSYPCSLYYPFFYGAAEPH

murine SFRP5 [2] = biological target: T1, murine SFRP5; assay: kinetics; method and SFRP5 construct not stated (Table 8)

- Kd (murine SFRP5 [1]): 0.658 nM
- koff (murine SFRP5 [1]): 7.36e-05 s⁻¹
- kon (murine SFRP5 [1]): 112000 M⁻¹ s⁻¹
- Kd (murine SFRP5 [2]): 0.658 nM
- koff (murine SFRP5 [2]): 7.36e-05 s⁻¹
- kon (murine SFRP5 [2]): 112000 M⁻¹ s⁻¹
B1: anti-SFRP5 monoclonal antibody subclone 24C18.3 (antibody, IgG2b, V domains shown)
VH: QVQLTQSGAELVRPGASVKLSCKASGYTFTDYYINWVKQRPGQGLEWIARIYPGSGNTYYNEKFKGKATLTAEKSSSTAYMQLSSLTSEDSAVYFCAAYSASAMDYWGQGTSVTVSS
VL: NVVLTQSPASLAVSLGQRATISCRASESVDSYGKSFMYWYQQKPGQPPKLLIYLANNLESGVPARFSGSGSRTDFTLTIDPVEADDAASYYCQQNNEDPWTFGGGTKLEIK
notes: also called mu24C18.3
